How the values were obtained:
Experiment in all cases: purified protein
purified protein [1] = substrate: Nc1c(S(=O)(=O)O)cc(Nc2cccc(S(=O)(=O)CCOS(=O)(=O)O)c2)c2c1C(=O)c1ccccc1C2=O; conditions: 0.25 mM H2O2, 0.1 M tartrate pH 3.5, 25 °C, pH 3.5
purified protein [2] = substrate: Nc1c(N=Nc2ccc(S(=O)(=O)CCOS(=O)(=O)O)cc2)c(S(=O)(=O)O)cc2cc(S(=O)(=O)O)c(N=Nc3ccc(S(=O)(=O)CCOS(=O)(=O)O)cc3)c(O)c12; conditions: 0.25 mM H2O2, 0.1 M tartrate pH 3.5 (table note; methods say pH 3), 25 °C
purified protein [3] = substrate: COc1cccc(OC)c1O; conditions: 0.25 mM H2O2, 0.1 M tartrate pH 3.5 (table note; methods say pH 3), 25 °C
purified protein [4] = substrate: CCn1c(=NN=c2sc3cc(S(=O)(=O)O)ccc3n2CC)sc2cc(S(=O)(=O)O)ccc21; type: biochemical, Pleurotus ostreatus; conditions: 0.25 mM H2O2, 0.1 M tartrate pH 3.5, 25 °C
purified protein [5] = substrate: Nc1c(S(=O)(=O)O)cc(Nc2cccc(S(=O)(=O)CCOS(=O)(=O)O)c2)c2c1C(=O)c1ccccc1C2=O; type: biochemical, Pleurotus ostreatus; conditions: 0.25 mM H2O2, 0.1 M tartrate pH 3.5, 25 °C

Row | Protein | Km (purified protein [1]) | kcat (purified protein [1]) | kcat/Km (purified protein [1]) | Km (purified protein [2]) | kcat (purified protein [2]) | kcat/Km (purified protein [2]) | Km (purified protein [3]) | kcat (purified protein [3]) | kcat/Km (purified protein [3]) | Km (purified protein [4]) | kcat (purified protein [4]) | kcat/Km (purified protein [4]) | Km (purified protein [5]) | kcat (purified protein [5]) | kcat/Km (purified protein [5])
1 | Pleos-DyP4 (Pleurotus ostreatus PC15) (protein) MTTPAPPLDLNNIQGDILGGLPKRTETYFFFDVTNVDQFKANMAHFIPHIKTSAGIIKDREAIKEHKRQKKPGLVPMAAVNVSFSHLGLQKLGITDDLSDNAFTTGQRKDAEILGDPGSKNGDAFTPAWEAPFLKDIHGVIFVAGDCHGSVNKKLDEIKHIFGVGTSHASISEVTHVRGDVRPGDVHAHEHFGFLDGISNPAVEQFDQNPLPGQDPIRPGFILAKENGDSRAAARPDWAKDGSFLTFRYLFQMVPEFDDFLESNPIVLPGLSRKEGSELLGARIVGRWKSGAPIEITPLKDDPKLAADAQRNNKFDFGDSLVRGDQTKCPFAAHIRKTYPRNDLEGPPLKADIDNRRIIRRGIQFGPEVTSQEHHDKKTHHGRGLLFVCYSSSIDDGFHFIQESWANAPNFPVNAVTSAGPIPPLDGVVPGFDAIIGQKVGGGIRQISGTNPNDPTTNITLPDQDFVVPRGGEYFFSPSITALKTKFAIGVASPAPHSQAPISA | 82 ± 13 µM | 152 ± 13 s⁻¹ | 1.86e+06 M⁻¹ s⁻¹ | 5.7 ± 0.4 µM | 5.3 ± 0.8 s⁻¹ | 1.08e+06 M⁻¹ s⁻¹ | 126 ± 21 µM | 268 ± 24 s⁻¹ | 2.12e+06 M⁻¹ s⁻¹ | 787 ± 160 µM | 277 ± 24 s⁻¹ | 352000 M⁻¹ s⁻¹ | – | – | –
2 | Pleos-VP2 (Pleurotus ostreatus) (protein) VTCATGQTTANEACCALFPILDDIQTNLFDGAQCGEEVHESLRLTFHDAIAFSPALTNAGQFGGGGADGSMIIFSDTEPNFHANLGIDEIVEAQKPFIARHNICAADFIQFAGAIGVSNCAGAPRLNFFLGRPDATQIPPDGLVPEPFDDVTKILSRMGDAGFSTVEVVWLLSSHTIAAADLVDPSIPGTPFDSTPSTFDSQFFLETMLQGTAFPGTPGNQGEVESPLAGEMRLQSDFLLARDSRSACEWQSMVNNMPKIQNRFTQVMKKLSLLGHNQADLIDCSDVIPVPKTLTKAATFPAGKSQADVEIVCNAAATPFPALSSDPGPVTAVPPVPPS | – | – | – | – | – | – | – | – | – | – | – | – | 16 ± 1 µM | 8 ± 0.2 s⁻¹ | 495000 M⁻¹ s⁻¹

— PMC4619462, “Description of the first fungal dye-decolorizing peroxidase oxidizing manganese(II)” (Applied Microbiology and Biotechnology, 2015)
